Data on 18 molecules can be found in publication PMC10349056, “The combined action of the intracellular regions regulates FGFR2 kinase activity” (Communications Biology, 2023).

Where no end group is shown, it is not given here.

The target of experiment [1] is FGFR2^C3 tagged with GFP or RFP. Nature of the experiment: FRET or BRET; FLIM of GFP- and RFP-tagged FGFR2 co-expressed in serum-starved HEK293T cells, fixed.
Experiment [2] addresses FGFR2 C-terminal tail of the C1 isoform, untagged (the last 58 residues of FGFR2) (UniProt P21802). Kind of experiment: SPR; untagged CT immobilised on a CM4 chip by amine coupling (about 200 RU); JM-KD proteins of different phosphorylation level injected at 30 µl/min, then buffer wash; steady-state fitting.
Experiment [3] deals with JM-KD^pY1 (mono-phosphorylated juxtamembrane region plus kinase domain) (UniProt P21802). Kind of experiment: SPR; apparent dimerization constant of JM-KD^pY1 (Supplementary Fig. 2c). On the technique in general: In SPR one partner is held on a chip, and binding of the other changes the refractive index at the surface.
Experiment [4] addresses CT^C1 (C-terminal tail of FGFR2IIIb C1 isoform, GST cleaved) (UniProt P21802). Nature of the experiment: MST; CT^C1 labeled with Atto488, titrated with unlabeled JM-KD^pY1 or KD^pY1, 25 °C.
Experiment [5] has the same target. Kind of experiment: SPR; BIAcore T100, CT^C1 immobilised on CM4 chip by amine coupling to about 200 RU, analytes at 30 µl/min.
Experiment [6] has as its target JM-KD^pY1 (mono-phosphorylated juxtamembrane region plus kinase domain) (UniProt P21802). Kind of experiment: MST; Atto488-labeled protein titrated with the same unlabeled protein, 25 °C; apparent dimerization constant, dimer to monomers.
In experiment [7] the target is FGFR2 juxtamembrane region (407-462), labelled with Atto 488 (UniProt P21802). Nature of the experiment: MST; JM labelled with Atto 488, serial dilutions of KD titrated, 25 °C; 20 mM HEPES, 150 mM NaCl, 1 mM TCEP, 0.01% Tween 20, pH 7.5; the text calls the constant of KD^pY1 apparent (Kd,app).
In experiment [8] the target is FGFR2^C2 tagged with GFP or RFP. Nature of the experiment: FRET or BRET; FLIM of GFP- and RFP-tagged FGFR2 co-expressed in serum-starved HEK293T cells, fixed.
In experiment [9] the target is KD^pY1 (mono-phosphorylated FGFR2IIIb kinase domain) (UniProt P21802). Nature of the experiment: MST; Atto488-labeled protein titrated with the same unlabeled protein, 25 °C; apparent dimerization constant, dimer to monomers.
The target in experiment [10] is JM (juxtamembrane region of FGFR2IIIb, as used in MST and NMR). Nature of the experiment: MST; JM labeled with Atto 488, serial dilutions of KD titrated, 25 °C, 20 mM HEPES, 150 mM NaCl, 1 mM TCEP, 0.01% Tween 20, pH 7.5; apparent.
Experiment [11] has the same target. Kind of experiment: MST; JM labeled with Atto 488, two-fold serial dilution of CT titrated.
A further experiment has as its target T1, FGFR2 JM-KD Y657/658F (UniProt P21802-3 414-764, Y657/658F | Y657/658F).
T1 construct: numbers count on: FGFR2IIIb (C1 isoform, 822 residues); source: E. coli BL21(DE3), purified (Talon, Superdex 75)
Nature of the experiment: SPR; untagged CT immobilised on a CM4 chip by amine coupling (about 200 RU); JM-KD proteins of different phosphorylation level injected at 30 µl/min, then buffer wash; steady-state fitting. The settings on record: both partners purified.

For experiment [12], the target named is T2, FGFR2 JM-KD, phosphorylation state pY2 (UniProt P21802-3 414-764, Y467F (worked out from the printed order of phosphorylation) | Y589F (worked …, phosphotyrosine at 657 and 587)).
T2 construct: numbers count on: FGFR2IIIb (C1 isoform, 822 residues); also called JM-KD^pY2; source: E. coli BL21(DE3), purified (Talon, Superdex 75)
T2 sequence (P21802 413-763 Y466F/Y588F/Y657F/Y733F): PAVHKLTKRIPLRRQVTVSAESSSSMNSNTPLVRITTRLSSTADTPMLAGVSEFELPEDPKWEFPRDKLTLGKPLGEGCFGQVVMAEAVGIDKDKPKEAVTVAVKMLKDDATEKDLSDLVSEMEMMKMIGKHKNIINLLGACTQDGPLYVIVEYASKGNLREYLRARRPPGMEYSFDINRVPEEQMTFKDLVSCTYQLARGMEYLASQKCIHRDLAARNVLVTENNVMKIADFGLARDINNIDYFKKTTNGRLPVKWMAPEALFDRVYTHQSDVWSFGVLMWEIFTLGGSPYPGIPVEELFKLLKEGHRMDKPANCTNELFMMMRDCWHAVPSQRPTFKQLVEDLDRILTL
The experiment is described as above. As to conditions: both partners purified.

In experiment [13] the target is T3, FGFR2 JM-KD, phosphorylation state pY3 (UniProt P21802-3 414-764, Y589F (worked out from the printed order of phosphorylation) | Y658F (worked …, phosphotyrosine at 657, 587 and 467)).
T3 construct: numbers count on: FGFR2IIIb (C1 isoform, 822 residues); also called JM-KD^pY3; source: E. coli BL21(DE3), purified (Talon, Superdex 75)
T3 sequence (P21802 413-763 Y588F/Y657F/Y733F): as the sequence (P21802 413-763 Y466F/Y588F/Y657F/Y733F) above, with F54Y counted along it
Described as above. The settings on record: both partners purified.

In experiment [14] the target is T4, FGFR2 JM-KD, phosphorylation state pY4 (UniProt P21802-3 414-764, Y658F (worked out from the printed order of phosphorylation) | Y734F (worked …, phosphotyrosine at 657, 587, 467 and 589)).
T4 construct: numbers count on: FGFR2IIIb (C1 isoform, 822 residues); also called JM-KD^pY4; source: E. coli BL21(DE3), purified (Talon, Superdex 75)
T4 sequence (P21802 413-763 Y657F/Y733F): as the sequence (P21802 413-763 Y466F/Y588F/Y657F/Y733F) above, with F54Y, F176Y counted along it
The experiment is described as above. As to conditions: both partners purified.

Experiment [15] deals with T5, FGFR2 JM-KD, phosphorylation state pY5 (UniProt P21802-3 414-764, Y734F (worked out from the printed order of phosphorylation), phosphotyrosine at 657, 587, 467, 589 and 658).
T5 construct: numbers count on: FGFR2IIIb (C1 isoform, 822 residues); also called JM-KD^pY5; source: E. coli BL21(DE3), purified (Talon, Superdex 75)
T5 sequence (P21802 413-763 Y733F): as the sequence (P21802 413-763 Y466F/Y588F/Y657F/Y733F) above, with F54Y, F176Y, F245Y counted along it
Described as above. The settings on record: both partners purified.

Experiment [16] has as its target T6, FGFR2 JM-KD wild type, phosphorylated (UniProt P21802-3 414-764, phosphotyrosines (phosphorylated wild type; sites not listed)).
T6 construct: numbers count on: FGFR2IIIb (C1 isoform, 822 residues); also called JM-KD^pWT; JM-KD^pYWT; source: E. coli BL21(DE3), purified (Talon, Superdex 75)
Described as above. The settings on record: both partners purified.

The target in experiment [17] is T7, FGFR2 kinase domain, mono-phosphorylated on Y657 (UniProt P21802-3 465-764, Y467F (worked out from the printed order of phosphorylation) | Y587F (worked …, phosphotyrosine at 657)).
T7 construct: FGFR2 (IIIb isoform) kinase domain, residues 465-764; numbers count on: FGFR2IIIb (C1 isoform, 822 residues); also called KD^pY1; source: E. coli BL21(DE3), purified (Talon, Superdex 75)
T7 sequence (P21802 464-763 Y466F/Y586F/Y588F/Y657F/Y733F): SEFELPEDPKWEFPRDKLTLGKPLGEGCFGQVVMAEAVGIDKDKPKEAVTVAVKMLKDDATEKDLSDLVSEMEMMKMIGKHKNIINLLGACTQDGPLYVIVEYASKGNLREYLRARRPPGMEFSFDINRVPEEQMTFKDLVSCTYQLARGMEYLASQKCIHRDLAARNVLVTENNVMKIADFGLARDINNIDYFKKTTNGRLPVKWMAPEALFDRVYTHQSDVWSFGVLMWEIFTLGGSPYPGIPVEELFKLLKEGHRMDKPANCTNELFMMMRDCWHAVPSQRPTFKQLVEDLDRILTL
Kind of experiment: MST; synthetic JM or CT peptides in serial dilution against KD^pY1, 25 °C; 20 mM HEPES, 150 mM NaCl, 1 mM TCEP, 0.01% Tween 20, pH 7.5. As to conditions: both partners purified.

For experiment [18], the target named is T8, FGFR2 C-terminal tail of the C1 isoform, untagged, labelled with Atto 488 (UniProt P21802-3 765-822, Atto 488 dye label).
T8 construct: FGFR2 (IIIb, C1 isoform) C-terminal tail, the last 58 residues of FGFR2; numbers count on: FGFR2IIIb (C1 isoform, 822 residues); also called CT^C1; source: E. coli BL21(DE3), purified as GST fusion, GST removed with thrombin
T8 sequence (looked up): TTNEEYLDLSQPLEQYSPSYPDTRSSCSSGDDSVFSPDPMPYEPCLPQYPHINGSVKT
Nature of the experiment: MST; CT labelled with Atto 488 (100 nM), 2-fold serial dilutions of JM peptides, 25 °C; 20 mM HEPES, 150 mM NaCl, 1 mM TCEP, 0.01% Tween 20, pH 7.5. As to conditions: both partners purified.

Experiment [19] concerns the target KD^pY1 (mono-phosphorylated FGFR2IIIb kinase domain) (UniProt P21802). Kind of experiment: MST; peptide fragments of CT against KD^pY1 (Supplementary Table 4, Supplementary Fig. 3a).
Experiment [20] concerns the target T9, FGFR2 juxtamembrane region (407-462), labelled with Atto 488 (UniProt P21802-3 407-462, Atto 488 dye label).
T9 construct: FGFR2 (IIIb isoform) juxtamembrane region, residues 407-462; numbers count on: FGFR2IIIb (C1 isoform, 822 residues); also called JM; 407Juxtamembrane region462; source: synthetic peptide, bought: Genscript
T9 sequence (looked up): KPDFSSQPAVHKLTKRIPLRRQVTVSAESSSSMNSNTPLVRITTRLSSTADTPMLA
Nature of the experiment: MST; JM labelled with Atto488 (100 nM), 2-fold serial dilutions of CT peptides, 25 °C; 20 mM HEPES, 150 mM NaCl, 1 mM TCEP, 0.01% Tween 20, pH 7.5. As to conditions: both partners purified.

The target of experiment [21] is T7, FGFR2 kinase domain, …. Kind of experiment: MST; synthetic JM or CT peptides in serial dilution against KD^pY1, 25 °C; 20 mM HEPES, 150 mM NaCl, 1 mM TCEP, 0.01% Tween 20, pH 7.5. The settings on record: both partners purified. The source holds these as a separate data set.

T6 sequence (P21802 413-763): as the sequence (P21802 413-763 Y466F/Y588F/Y657F/Y733F) above, with F54Y, F176Y, F245Y, F321Y counted along it
T1 sequence (P21802 other isoform, or with tags, fused parts or gaps Y657/658F | Y657/658F | Y657/658F | Y657/658F): as the sequence (P21802 413-763 Y466F/Y588F/Y657F/Y733F) above, with F54Y, F176Y, Y244F, F321Y counted along it

In [1], “FGFR2^C3 tagged with GFP or RFP (receptor)” returned a percent of molecules showing interaction of 26%.

“FGFR2 JM-KD, phosphorylation state pY6 (from UniProt P21802-3 414-764) (domain or fragment)” returned a Kd in [2] of 4.63 µM.

Turning to “JM-KD^pY1 (mono-phosphorylated juxtamembrane region plus kinase domain) (from UniProt P21802-3 414-764) (domain or fragment)”, the Kd in experiment [3] was 3.07 µM; in [4], 0.304 µM; in experiment [5], 0.16 µM; in [6], 3.46 µM.

Take “FGFR2 kinase domain, phosphorylation state pY6 (from UniProt P21802-3 465-764) (domain or fragment)”: in [7], the Kd amounted to 20.5 µM.

In turn, “FGFR2^C2 tagged with GFP or RFP (receptor)” came in with a percent of molecules showing dimerization above the control threshold in [8] of 16%.

Turning to “KD^pY1 (mono-phosphorylated FGFR2IIIb kinase domain) (from UniProt P21802-3 465-764) (domain or fragment)”, the Kd in experiment [4] was determined as 3.75 µM; in experiment [9], 0.112 µM; in [10], 2.51 µM.

B1: CT^C1 (C-terminal tail of FGFR2IIIb C1 isoform, GST cleaved) (domain or fragment)
chain: TTNEEYLDLSQPLEQYSPSYPDTRSSCSSGDDSVFSPDPMPYEPCLPQYPHINGSVKT
modifications: cysteine pairing not given here; also: Atto488 label (MST), place not given here, 15N-labeled (NMR)
B1 displayed a Kd in experiment [11] of 20.2 µM.

B2: FGFR2 C-terminal tail of the C1 isoform, untagged (the last 58 residues of FGFR2) (domain or fragment, UniProt P21802-3 765-822, looked up)
chain: TTNEEYLDLSQPLEQYSPSYPDTRSSCSSGDDSVFSPDPMPYEPCLPQYPHINGSVKT
notes: FGFR2 (IIIb, C1 isoform) C-terminal tail, the last 58 residues of FGFR2; numbers count on: FGFR2IIIb (C1 isoform, 822 residues); Unlabelled form: immobilised by amine coupling in SPR; added as 'CT' in the steady-state FRET; also called CT^C1; source: E. coli BL21(DE3), purified as GST fusion, GST removed with thrombin
B2: the Kd with FGFR2 JM-KD Y657/658F came out at 5.68 µM; in experiment [12], 4.08 µM; in [13], 3.27 µM; in experiment [14] it was 7.87 µM; in experiment [15], 1.6 µM; in experiment [16], 2.31 µM.

B3: CT peptide 815-822 (peptide)
peptide: HINGSVKT
notes: FGFR2 (IIIb, C1 isoform) C-terminal tail, residues 815-822; numbers count on: FGFR2IIIb (C1 isoform, 822 residues); also called CT^815-822; source: synthetic peptide, bought: Genscript
B3 gave a Kd in [17] of 426 ± 42.5 µM.

B4: JM peptide 449-462 (peptide)
peptide: TTRLSSTADTPMLA
notes: numbers count on: FGFR2IIIb (C1 isoform, 822 residues); source: synthetic peptide, bought: Genscript
Turning to B4, in experiment [18], the Kd was determined as 25.4 ± 3.26 µM.

B5: CT peptide 801-815 (peptide)
peptide: PDPMPYEPCLPQYPH
notes: as for B4
For the molecule B5, the values for the Kd in experiment [19], in experiment [17] and in experiment [20] were 25.9 µM, 25.8 ± 5.4 µM and 63.6 ± 6.5 µM, respectively.

B6: JM peptide 407-420 (peptide)
peptide: KPDFSSQPAVHKLT
notes: FGFR2 (IIIb isoform) juxtamembrane region, residues 407-420; numbers count on: FGFR2IIIb (C1 isoform, 822 residues); source: synthetic peptide, bought: Genscript
B6: the Kd came out at 105 ± 7.37 µM in [21] and 200 ± 13.7 µM in experiment [18].

B7: JM peptide 429-442 (peptide)
peptide: VTVSAESSSSMNSN
notes: as for B4
In experiment [18], B7 displayed a Kd of 3.23 ± 0.326 µM.

B8: CT peptide 808-819 (peptide)
peptide: PCLPQYPHINGS
notes: numbers count on: FGFR2IIIb (C1 isoform, 822 residues); also called 808PCLPQYPHINGS819; source: synthetic peptide, bought: Genscript
For B8, in [17], the Kd came to 255 ± 37.9 µM.

B9: CT peptide 808-822 (peptide)
peptide: PCLPQYPHINGSVKT
notes: FGFR2 (IIIb, C1 isoform) C-terminal tail, residues 808-822; numbers count on: FGFR2IIIb (C1 isoform, 822 residues); also called CT^808-822; source: synthetic peptide, bought: Genscript
In the case of B9, in experiment [17], the Kd was 257 ± 39.2 µM.

B10: JM peptide 414-430 (peptide)
peptide: PAVHKLTKRIPLRRQVT
notes: as for B4
B10 showed a Kd in experiment [21] of 36.8 ± 6.23 µM.

B11: JM peptide 439-452 (peptide)
peptide: MNSNTPLVRITTRL
notes: FGFR2 (IIIb isoform) juxtamembrane region, residues 439-452; numbers count on: FGFR2IIIb (C1 isoform, 822 residues); source: synthetic peptide, bought: Genscript
B11 came in with a Kd in experiment [18] of 372 ± 30.3 µM.

B12: CT peptide 808-815 (peptide)
peptide: PCLPQYPH
notes: FGFR2 (IIIb, C1 isoform) C-terminal tail, residues 808-815; numbers count on: FGFR2IIIb (C1 isoform, 822 residues); also called CT^808-815; source: synthetic peptide, bought: Genscript
For the molecule B12, the Kd in [17] is 291 ± 21.4 µM; in experiment [20], 56.6 ± 5.5 µM.
